Results from publication PMC8008175 (The Journal of Biological Chemistry, 2021).

Legend:
[1] = molecular target: Ubp6 UBL UBL (Saccharomyces cerevisiae) (UniProt P43593); conditions: cited from earlier work
Rpn1^356-905 [2] = molecular target: T1, Rpn1^356-905 (Saccharomyces cerevisiae, UniProt P38764 356-905); experiment: NMR titration; ^1H-^15N spectra of ^15N-UBL with unlabeled Rpn1^356-905; 50 mM Tris-Cl, 200 mM KCl, 5% glycerol, 5 mM β-mercaptoethanol, pH 7.4; 21-25 °C; conditions: both partners purified
T1 construct: also called PC repeat region construct; source: E. coli, purified
T1 sequence (looked up): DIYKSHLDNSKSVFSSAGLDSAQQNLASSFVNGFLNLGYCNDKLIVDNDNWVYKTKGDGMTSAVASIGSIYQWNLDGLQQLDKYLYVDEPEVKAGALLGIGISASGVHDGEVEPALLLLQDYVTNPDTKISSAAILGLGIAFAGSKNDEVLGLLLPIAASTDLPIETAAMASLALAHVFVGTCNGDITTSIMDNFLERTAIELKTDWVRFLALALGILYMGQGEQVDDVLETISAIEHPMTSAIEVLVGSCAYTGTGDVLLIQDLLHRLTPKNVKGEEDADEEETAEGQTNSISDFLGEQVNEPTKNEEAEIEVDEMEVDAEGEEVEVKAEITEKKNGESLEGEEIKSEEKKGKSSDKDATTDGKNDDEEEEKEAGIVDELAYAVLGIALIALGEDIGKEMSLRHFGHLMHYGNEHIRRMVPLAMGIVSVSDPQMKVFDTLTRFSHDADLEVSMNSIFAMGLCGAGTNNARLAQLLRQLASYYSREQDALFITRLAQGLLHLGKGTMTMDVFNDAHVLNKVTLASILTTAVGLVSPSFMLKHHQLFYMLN

Rpn10-UIM = molecular target: T2, Rpn10-UIM (Saccharomyces cerevisiae, UniProt P38886 204-268, Q261Y); experiment: NMR titration; ^1H-^15N spectra of 150 μM ^15N-UBL with 1× Rpn10-UIM; signal shifts; conditions: both partners purified
T2 construct: Rpn10, Saccharomyces cerevisiae, UniProt P38886, residues 204-268 with a Q261Y mutation for quantification purposes; also called UIM domain of Rpn10; source: E. coli, purified
T2 sequence (looked up): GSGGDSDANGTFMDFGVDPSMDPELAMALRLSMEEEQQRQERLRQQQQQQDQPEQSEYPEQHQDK

full-length Rpn1 [3] = molecular target: T3, full-length Rpn1 (Saccharomyces cerevisiae, UniProt P38764 1-993); experiment: NMR titration; competition: 150 μM ^15N-UBL with 1× Rpn10-UIM, then 0.3× Rpn1^FL (48 μM), then 2× or 3× Rpn10-UIM; conditions: both partners purified
T3 construct: Rpn1, proteasomal subunit, Saccharomyces cerevisiae, UniProt P38764, full length; Unlabeled in the NMR experiments; also called Rpn1^FL; source: E. coli, purified
T3 sequence (looked up): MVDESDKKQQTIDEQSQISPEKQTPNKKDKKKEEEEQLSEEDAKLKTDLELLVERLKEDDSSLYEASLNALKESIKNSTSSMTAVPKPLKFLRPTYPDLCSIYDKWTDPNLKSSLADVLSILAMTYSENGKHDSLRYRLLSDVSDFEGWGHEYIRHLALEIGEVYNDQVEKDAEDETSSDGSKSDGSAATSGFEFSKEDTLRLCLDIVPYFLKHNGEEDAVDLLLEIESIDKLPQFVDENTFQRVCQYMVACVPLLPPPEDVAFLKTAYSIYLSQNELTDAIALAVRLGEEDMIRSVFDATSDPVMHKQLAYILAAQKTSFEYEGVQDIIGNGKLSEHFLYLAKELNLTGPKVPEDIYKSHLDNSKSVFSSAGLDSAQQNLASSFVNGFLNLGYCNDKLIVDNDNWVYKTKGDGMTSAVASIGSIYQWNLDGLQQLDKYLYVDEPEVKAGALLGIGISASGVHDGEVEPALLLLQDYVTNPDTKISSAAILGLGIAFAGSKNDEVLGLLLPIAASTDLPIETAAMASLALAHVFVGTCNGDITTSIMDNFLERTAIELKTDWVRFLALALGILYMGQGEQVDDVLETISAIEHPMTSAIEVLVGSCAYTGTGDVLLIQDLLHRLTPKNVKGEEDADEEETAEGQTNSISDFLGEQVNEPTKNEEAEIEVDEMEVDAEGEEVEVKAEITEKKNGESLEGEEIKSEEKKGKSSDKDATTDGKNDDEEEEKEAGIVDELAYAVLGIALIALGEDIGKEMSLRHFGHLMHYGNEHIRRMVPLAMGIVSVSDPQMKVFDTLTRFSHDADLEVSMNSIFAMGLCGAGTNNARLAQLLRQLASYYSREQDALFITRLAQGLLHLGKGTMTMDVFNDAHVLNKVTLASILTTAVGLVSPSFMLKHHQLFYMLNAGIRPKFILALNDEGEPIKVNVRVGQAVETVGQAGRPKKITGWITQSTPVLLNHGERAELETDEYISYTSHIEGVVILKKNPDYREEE

Rpn1^391-642 [4] = molecular target: T4, Rpn1^391-642 (Saccharomyces cerevisiae, UniProt P38764 391-642); experiment: NMR titration; ^1H-^15N spectra, CSPs and ^15N R2 of 150 μM ^15N-UBL or ^15N-^dK48-Ub2 with unlabeled Rpn1^391-642; 50 mM HEPES, 50 mM KCl, 1 mM TCEP, pH 7.6; 21-25 °C; conditions: both partners purified
T4 construct: Used unlabeled, and ^15N-enriched for the titration with Ubp6-UBL; source: E. coli, purified
T4 sequence (looked up): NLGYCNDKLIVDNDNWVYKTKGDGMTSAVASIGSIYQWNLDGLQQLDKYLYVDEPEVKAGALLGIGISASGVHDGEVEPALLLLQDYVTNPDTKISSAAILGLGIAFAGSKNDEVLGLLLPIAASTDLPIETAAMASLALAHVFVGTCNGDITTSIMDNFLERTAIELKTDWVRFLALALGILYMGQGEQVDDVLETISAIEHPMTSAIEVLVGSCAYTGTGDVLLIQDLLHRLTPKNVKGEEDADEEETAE

full-length Rpn1 [5] = molecular target: T3, full-length Rpn1; experiment: NMR titration; ^1H-^15N spectra of the ^15N-enriched protein or UBL domain with unlabeled Rpn1^FL (equimolar; excess for Ddi1); signal attenuation; 20 mM sodium phosphate, 150 mM NaCl, 1 mM TCEP, pH 6.8; 21-25 °C; conditions: both partners purified
Rpn1^391-642 [6] = molecular target: T4, Rpn1^391-642; experiment: NMR titration; unlabeled Ubp6-UBL titrated into ^15N-Rpn1^391-642 or ^15N-Rpn1^391-642(AKAA); CSPs fitted to a single-site binding model, Kd as a global parameter; 50 mM HEPES, 50 mM KCl, 1 mM TCEP, pH 7.6; 21-25 °C; conditions: both partners purified
Rpn1^391-642(AKAA) = molecular target: T5, Rpn1^391-642(AKAA) (Saccharomyces cerevisiae, UniProt P38764 391-642, L430A | D431K | Q434A | Q435A); experiment: as above; conditions: both partners purified
T5 construct: ^15N-enriched in the titration; source: E. coli, purified
T5 sequence (looked up): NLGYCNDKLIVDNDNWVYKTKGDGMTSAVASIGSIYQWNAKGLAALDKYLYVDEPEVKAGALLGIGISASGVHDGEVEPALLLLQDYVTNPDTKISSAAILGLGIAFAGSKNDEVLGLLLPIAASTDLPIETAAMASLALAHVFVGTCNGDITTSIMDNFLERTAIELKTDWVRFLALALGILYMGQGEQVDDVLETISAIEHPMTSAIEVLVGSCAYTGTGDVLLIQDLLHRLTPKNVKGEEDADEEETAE

Rpn1^356-905 [7] = molecular target: T1, Rpn1^356-905; experiment: NMR titration; competition: equimolar ^15N-UBL and Rpn1^356-905 with unlabeled competitor added stepwise (molar ratios 1 and 4); 50 mM Tris-Cl, 200 mM KCl, 5% glycerol, 5 mM β-mercaptoethanol, pH 7.4; 21-25 °C; conditions: both partners purified

Rpn1 391-642 (from UniProt P38764)
Kd [1]: 40 µM

B1: Dsk2-UBL (domain or fragment, Saccharomyces cerevisiae)
chain: SLNIHIKSGQDKWEVNVAPESTVLQFKEAINKANGIPVANQRLIYSGKILKDDQTVESYHIQDGHSVHLVKSQPKPLDLQPSLIS
notes: Dsk2, Saccharomyces cerevisiae, UniProt P48510, UBL domain, residues 2-77; also called UBL domain of Dsk2; source: E. coli, purified
binding result (Rpn1^356-905 [2]): binds
binding result (Rpn10-UIM): binds
binding result (full-length Rpn1 [3]): binds
binding result (Rpn1^391-642 [4]): binds

B2: Rad23-UBL (residues 1-73) (domain or fragment, Saccharomyces cerevisiae, UniProt P32628 1-73, looked up)
chain: MVSLTFKNFKKEKVPLDLEPSNTILETKTKLAQSISCEESQIKLIYSGKVLQDSKTVSECGLKDGDQVVFMVS
notes: ^15N-enriched; source: E. coli, purified
binding result (full-length Rpn1 [3]): binds

B3: full-length Dsk2 (natural protein, Saccharomyces cerevisiae, UniProt P48510 1-373, looked up)
chain: MSLNIHIKSGQDKWEVNVAPESTVLQFKEAINKANGIPVANQRLIYSGKILKDDQTVESYHIQDGHSVHLVKSQPKPQTASAAGANNATATGAAAGTGATPNMSSGQSAGFNPLADLTSARYAGYLNMPSADMFGPDGGALNNDSNNQDELLRMMENPIFQSQMNEMLSNPQMLDFMIQSNPQLQAMGPQARQMLQSPMFRQMLTNPDMIRQSMQFARMMDPNAGMGSAGGAASAFPAPGGDAPEEGSNTNTTSSSNTGNNAGTNAGTNAGANTAANPFASLLNPALNPFANAGNAASTGMPAFDPALLASMFQPPVQASQAEDTRPPEERYEHQLRQLNDMGFFDFDRNVAALRRSGGSVQGALDSLLNGDV
notes: Dsk2, UBL-UBA shuttle protein, Saccharomyces cerevisiae, UniProt P48510, full length; ^15N-enriched; source: E. coli, purified
binding result (full-length Rpn1 [5]): binds

B4: full-length Ubp6 (enzyme, Saccharomyces cerevisiae, UniProt P43593 1-499, looked up)
chain: MSGETFEFNIRHSGKVYPITLSTDATSADLKSKAEELTQVPSARQKYMVKGGLSGEESIKIYPLIKPGSTVMLLGTPDANLISKPAKKNNFIEDLAPEQQVQQFAQLPVGFKNMGNTCYLNATLQALYRVNDLRDMILNYNPSQGVSNSGAQDEEIHKQIVIEMKRCFENLQNKSFKSVLPIVLLNTLRKCYPQFAERDSQGGFYKQQDAEELFTQLFHSMSIVFGDKFSEDFRIQFKTTIKDTANDNDITVKENESDSKLQCHISGTTNFMRNGLLEGLNEKIEKRSDLTGANSIYSVEKKISRLPKFLTVQYVRFFWKRSTNKKSKILRKVVFPFQLDVADMLTPEYAAEKVKVRDELRKVEKEKNEKEREIKRRKFDPSSSENVMTPREQYETQVALNESEKDQWLEEYKKHFPPNLEKGENPSCVYNLIGVITHQGANSESGHYQAFIRDELDENKWYKFNDDKVSVVEKEKIESLAGGGESDSALILMYKGFGL
notes: Ubp6, deubiquitinase with a UBL domain, Saccharomyces cerevisiae, UniProt P43593, full length; source: E. coli, purified
binding result (full-length Rpn1 [5]): binds

B5: full-length Rad23 (natural protein, Saccharomyces cerevisiae, UniProt P32628 1-398, looked up)
chain: MVSLTFKNFKKEKVPLDLEPSNTILETKTKLAQSISCEESQIKLIYSGKVLQDSKTVSECGLKDGDQVVFMVSQKKSTKTKVTEPPIAPESATTPGRENSTEASPSTDASAAPAATAPEGSQPQEEQTATTERTESASTPGFVVGTERNETIERIMEMGYQREEVERALRAAFNNPDRAVEYLLMGIPENLRQPEPQQQTAAAAEQPSTAATTAEQPAEDDLFAQAAQGGNASSGALGTTGGATDAAQGGPPGSIGLTVEDLLSLRQVVSGNPEALAPLLENISARYPQLREHIMANPEVFVSMLLEAVGDNMQDVMEGADDMVEGEDIEVTGEAAAAGLGQGEGEGSFQVDYTPEDDQAISRLCELGFERDLVIQVYFACDKNEEAAANILFSDHAD
notes: Rad23, UBL-UBA shuttle protein, Saccharomyces cerevisiae, UniProt P32628, full length; ^15N-enriched; source: E. coli, purified
binding result (full-length Rpn1 [5]): binds

B6: Ubp6-UBL (domain or fragment, Saccharomyces cerevisiae, UniProt P43593 2-81, looked up)
chain: SGETFEFNIRHSGKVYPITLSTDATSADLKSKAEELTQVPSARQKYMVKGGLSGEESIKIYPLIKPGSTVMLLGTPDANL
notes: Ubp6, Saccharomyces cerevisiae, UniProt P43593, UBL domain, residues 2-81; Used ^15N-enriched or unlabeled; also called UBL domain of Ubp6; source: E. coli, purified
Kd (Rpn1^391-642 [6]): 43 ± 22 µM
Kd (Rpn1^391-642(AKAA)): 36 ± 21 µM

B7: Rad23-UBL (residues 2-77) (domain or fragment, Saccharomyces cerevisiae, UniProt P32628 2-77, looked up)
chain: VSLTFKNFKKEKVPLDLEPSNTILETKTKLAQSISCEESQIKLIYSGKVLQDSKTVSECGLKDGDQVVFMVSQKKS
notes: Rad23, Saccharomyces cerevisiae, UniProt P32628, UBL domain, residues 2-77; also called UBL domain of Rad23; source: E. coli, purified
binding result (full-length Rpn1 [5]): binds
binding result (Rpn1^356-905 [7]): binds
binding result (Rpn1^391-642 [4]): binds
